Tests used:
[1] = molecular target: T1, FHH-tagged Siah1, recombinant purified (UniProt Q8IUQ4 1-282, RED-tris-NTA 2nd generation dye (Monolith His-Tag labeling kit)); test: MST
T1 sequence (looked up): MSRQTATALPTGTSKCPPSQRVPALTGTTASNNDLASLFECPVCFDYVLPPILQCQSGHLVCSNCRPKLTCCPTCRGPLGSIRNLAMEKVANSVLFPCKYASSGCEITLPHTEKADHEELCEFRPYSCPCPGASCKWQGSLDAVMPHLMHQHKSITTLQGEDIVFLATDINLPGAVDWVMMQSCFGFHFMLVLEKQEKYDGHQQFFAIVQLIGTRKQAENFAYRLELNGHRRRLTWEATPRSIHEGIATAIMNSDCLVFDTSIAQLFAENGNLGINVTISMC

[2] = molecular target: FHH-tagged MAB21L4, recombinant purified (human, UniProt Q08AI8 1-447, RED-tris-NTA 2nd generation dye (Monolith His-Tag labeling kit)); test: MST
FHH-tagged MAB21L4, recombinant purified, sequence (Q08AI8 whole entry): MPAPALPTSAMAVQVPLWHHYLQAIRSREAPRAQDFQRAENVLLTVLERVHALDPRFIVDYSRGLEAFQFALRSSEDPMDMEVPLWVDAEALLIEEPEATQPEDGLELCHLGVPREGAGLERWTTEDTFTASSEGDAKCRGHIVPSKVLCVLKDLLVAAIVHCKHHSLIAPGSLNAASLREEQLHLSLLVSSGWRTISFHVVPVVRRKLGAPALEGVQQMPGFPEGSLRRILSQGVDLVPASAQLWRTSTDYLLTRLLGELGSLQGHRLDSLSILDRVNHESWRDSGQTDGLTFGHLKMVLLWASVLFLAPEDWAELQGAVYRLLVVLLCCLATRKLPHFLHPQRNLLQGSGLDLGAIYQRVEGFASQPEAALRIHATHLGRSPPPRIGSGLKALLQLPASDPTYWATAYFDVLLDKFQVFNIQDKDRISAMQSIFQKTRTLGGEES

- Kd [1]: 9.8 µM
- Kd [2]: 2.1 µM
B1: n-terminus FLAG-tagged CacyBP, recombinant purified (natural protein, UniProt Q9HB71 1-228, looked up)
chain: MASEELQKDLEEVKVLLEKATRKRVRDALTAEKSKIETEIKNKMQQKSQKKAELLDNEKPAAVVAPITTGYTVKISNYGWDQSDKFVKIYITLTGVHQVPTENVQVHFTERSFDLLVKNLNGKSYSMIVNNLLKPISVEGSSKKVKTDTVLILCRKKVENTRWDYLTQVEKECKEKEKPSYDTETDPSEGLMNVLKKIYEDGDDDMKRTINKAWVESREKQAKGDTEF
